Paper PMC9482650, “Quantitative fragmentomics allow affinity mapping of interactomes” (Nature Communications, 2022)

B1: ABCA2, Q9BZC7 (peptide)
chain: QLSFNTDTLC
B2: PRKACA, P17612 (peptide)
chain: EKCGKEFSEF
B3: TECPR2, O15040 (peptide)
chain: EDLEDEWEVI

What follows are binders tested against T1, SYNJ2BP, P57105 (assay: holdup assay). Settings: plain residues with an end cap or a label only (N-terminal biotin on a linker: ado-ado).
T1 sequence (P57105 8-110, limits assumed, looked up): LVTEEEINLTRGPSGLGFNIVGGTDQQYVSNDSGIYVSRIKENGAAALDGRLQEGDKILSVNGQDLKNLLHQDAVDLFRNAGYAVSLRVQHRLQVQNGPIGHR
Parameters: key: below the threshold = too weak to quantify, mostly under pKd 3.1 to 4
B1 was tested, and the pKd was 3.58. B2 was tested, and the pKd was “below the threshold”. B3 was tested, and the pKd was “below the threshold”.
